Numbering of substitutions follows the chain as printed. Names and notes keep the numbering of the source. Values belong to the binder of their own block, whether it stands above or below them.
Columns and labels:
[1] = target: T1, human LAG3 (form used in Octet, Biacore and HDX-MS not given) (human, UniProt P18627 23-450, limits assumed); test: BLI (Octet), 1:1 fit
T1 sequence (looked up): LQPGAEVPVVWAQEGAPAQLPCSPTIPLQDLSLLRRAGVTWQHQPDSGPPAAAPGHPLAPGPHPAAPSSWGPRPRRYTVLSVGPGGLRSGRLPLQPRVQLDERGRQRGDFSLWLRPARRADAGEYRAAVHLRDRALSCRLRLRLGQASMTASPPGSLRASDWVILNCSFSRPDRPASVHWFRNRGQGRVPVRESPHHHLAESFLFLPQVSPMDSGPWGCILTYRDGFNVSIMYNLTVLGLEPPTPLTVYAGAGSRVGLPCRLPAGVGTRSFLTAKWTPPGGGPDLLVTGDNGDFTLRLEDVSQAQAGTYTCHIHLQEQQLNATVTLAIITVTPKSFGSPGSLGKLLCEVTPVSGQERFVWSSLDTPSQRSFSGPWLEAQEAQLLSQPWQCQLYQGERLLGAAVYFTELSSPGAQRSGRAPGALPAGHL
Experimental: (§1) The association and dissociation curves were fit with 1:1 binding model, and the Ka/Kd/KD values for each antibody were calculated.
as §1

[2] = target: T2, mFc tagged human LAG3 ECD recombinant protein (human, UniProt P18627 23-450); test: competitive FACS: mFc tagged human LAG3 ECD binding to MHC II on Raji cells
T2 construct: extracellular domain; purchased from Biointron; not shown: mouse IgG Fc (mFc) tag
T2 sequence (looked up): T1 sequence (looked up)
Experimental: (§2) Activity of the purified chimeric antibodies to block LAG3 and MHC II interaction was determined by competitive FACS assay. […] After washing, dye labeled anti-mouse Fc 2nd antibody (Sigma) was added and incubated at 37° C. for 1 hour. Fluorescence intensity was detected.

[3] = target: T1, human LAG3 (form used in Octet, Biacore …); test: BLI (Octet)
[4] = target: T3, hFc tagged human LAG3 ECD recombinant protein (human, UniProt P18627 23-450); test: competitive FACS: hFc-LAG3 ECD binding to Raji cells (MHC II)
T3 construct: range 23-450; also called biotin labelled hFc tagged human LAG3 ECD; not shown: human IgG Fc tag
T3 sequence (looked up): T1 sequence (looked up)
Experimental: Competitive FACS assay was used to determine whether the purified hybridoma antibodies can block LAG3 and MHC II interaction. […] After washing, dye labeled anti-human Fc 2nd antibody (Sigma) was added and incubated at 37° C. for 1 hour. Fluorescence intensity was detected.

[5] = target: T4, mouse LAG3, full length, stably expressed on CHOK1 cells (mouse, UniProt Q61790 24-521); test: FACS on CHOK1 cells expressing mouse LAG3
T4 construct: whole, on cells
T4 sequence (looked up): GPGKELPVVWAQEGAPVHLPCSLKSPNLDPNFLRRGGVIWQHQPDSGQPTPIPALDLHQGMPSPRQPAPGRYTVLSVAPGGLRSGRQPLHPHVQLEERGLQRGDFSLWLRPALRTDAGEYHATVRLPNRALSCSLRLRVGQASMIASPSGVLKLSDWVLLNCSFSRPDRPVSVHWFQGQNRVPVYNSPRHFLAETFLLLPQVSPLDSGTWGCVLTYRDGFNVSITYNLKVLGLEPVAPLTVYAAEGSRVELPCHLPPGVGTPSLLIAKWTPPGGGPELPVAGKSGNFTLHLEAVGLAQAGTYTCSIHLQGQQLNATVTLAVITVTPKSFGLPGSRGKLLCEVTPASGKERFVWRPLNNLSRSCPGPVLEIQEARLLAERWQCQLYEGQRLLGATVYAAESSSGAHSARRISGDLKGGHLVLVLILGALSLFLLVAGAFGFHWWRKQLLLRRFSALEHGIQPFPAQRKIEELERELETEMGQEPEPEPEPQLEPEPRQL
Experimental: (§3) Briefly the antibodies were incubated with 2×10⁵ target cells at 4° C. for 1 hour. After washing, fluorescence labeled anti-mouse IgG 2nd antibody (Life Technologies) was added and incubated at 4° C. for 1 hour. Geometric median fluorescence intensity (MFI) was detected and EC₅₀ was calculated using GraphPad Prism9.0.

[6] = target: T5, human LAG3, full length, stably expressed on cells (human, UniProt P18627 23-525); test: FACS on 293F-human LAG3 cells
T5 construct: whole, on cells; also called CHOK1-human LAG3
T5 sequence (looked up): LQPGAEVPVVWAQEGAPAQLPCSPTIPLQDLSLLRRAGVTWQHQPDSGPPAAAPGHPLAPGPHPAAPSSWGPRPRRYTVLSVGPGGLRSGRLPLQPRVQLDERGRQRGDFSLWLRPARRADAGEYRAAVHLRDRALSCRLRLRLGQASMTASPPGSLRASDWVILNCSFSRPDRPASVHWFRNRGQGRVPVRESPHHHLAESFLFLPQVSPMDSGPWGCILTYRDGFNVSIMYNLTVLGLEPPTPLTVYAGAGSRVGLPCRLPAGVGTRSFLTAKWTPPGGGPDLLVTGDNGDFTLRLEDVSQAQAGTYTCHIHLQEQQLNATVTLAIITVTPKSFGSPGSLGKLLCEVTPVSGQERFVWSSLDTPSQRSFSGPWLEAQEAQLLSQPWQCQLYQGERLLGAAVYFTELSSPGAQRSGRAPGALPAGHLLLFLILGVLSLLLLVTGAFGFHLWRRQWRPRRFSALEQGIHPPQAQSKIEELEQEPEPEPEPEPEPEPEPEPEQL
Experimental: as §3

[7] = target: T6, hFc tagged human LAG3 D1-D2 recombinant protein (human, UniProt P18627 23-261); test: ELISA, coated hFc-hLAG3 D1-D2
T6 construct: range 23-261; generated by Chempartner; also called hLAG3 D1-D2; not shown: human IgG Fc tag
T6 sequence (looked up): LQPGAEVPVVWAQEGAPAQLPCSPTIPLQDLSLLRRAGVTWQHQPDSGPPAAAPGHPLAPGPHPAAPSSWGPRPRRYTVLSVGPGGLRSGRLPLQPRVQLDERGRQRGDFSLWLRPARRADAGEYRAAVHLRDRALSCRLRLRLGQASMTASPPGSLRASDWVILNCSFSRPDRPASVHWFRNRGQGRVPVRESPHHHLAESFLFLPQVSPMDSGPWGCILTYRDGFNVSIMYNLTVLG
Experimental: Binding activity of the purified hybridoma antibodies against human LAG3 was detected by ELISA assay using hFc tagged human LAG3 D1-D2 recombinant protein. Briefly the antibodies were incubated with ELISA microplate coated antigens at 37° C. for 1 hour. After washing, horseradish peroxidase (HRP) labeled anti-human IgG 2nd Ab (Sigma) was added and incubated at 37° C. for 1 hour. Then, 100 μl/well of TMB solution (Biotechnology) was added. After incubation for 15 minutes at room temperature, the reaction was stopped by the addition of 50 μl of 1N HCl. OD 450 nm was read and EC₅₀ was calculated using GraphPad Prism9.0.

[8] = target: T3, hFc tagged human LAG3 ECD recombinant …; test: competitive ELISA: excess competitor, biotin hFc-LAG3 ECD, coated BAP-050
Experimental: (§4) Competitive ELISA assay was used for epitope binning of the purified hybridoma antibodies. […] After washing, HRP labeled anti-streptavidin (SA) 2nd antibody (Sigma) was added and incubated at 37° C. for 1 hour. Then, 100 μl/well of TMB solution (Biotechnology) was added. After incubation for 15 minutes at room temperature, the reaction was stopped by the addition of 50 μl of 1N HCl. OD 450 nm was read. Competition ratio was calculated.

[9] = target: T3, hFc tagged human LAG3 ECD recombinant …; test: competitive ELISA: excess competitor, biotin hFc-LAG3 ECD, coated BMS-986016
Experimental: as §4

[10] = target: T2, mFc tagged human LAG3 ECD recombinant …; test: competitive FACS: mFc-LAG3 ECD binding to Raji cells (MHC II)
Experimental: as §2

[11] = target: T5, human LAG3, full length, stably …; test: FACS on 293F cells stably expressing human LAG3
Experimental: as §3
MFI was detected and EC₅₀ was calculated using GraphPad Prism9.0.

B1: hu029.53 (antibody, V domains shown)
VH: QVQLVESGGGLVKPGGSLRLSCAASGFTFSSYAMSWIRQAPGKGLEWVAYVTSGGDYIYYADTVKGRFTISRDDAKNSLYLQMNSLRAEDTAMYYCTRVAYDYEWYFDVWGQGALVTVSS
VL: DIQMTQSPSSVSASVGDRVTITCKASQDVTTAVAWYQQKPGKAPKLLIYSASYRYTGVPSRFSGSGSGTDFTLTISSLQPEDFATYYCQQHDSSPWTFGQGTKLEIK
notes: humanized from 029c
Kd [1]: 4.94 nM
koff [1]: 0.0217 s⁻¹
kon [1]: 4.38e+06 M⁻¹ s⁻¹
%Blocking at 2 nM [2]: 21.4%
%Blocking at 4 nM [2]: 31.9%
%Blocking at 8 nM [2]: 98%

B2: hu023.05 (antibody, human IgG4, V domains shown)
VH: QVQLVQSGAEVKKPGASVKVSCKASGYTFTESPMNWVRQAPGQGFEWMGIIYTDTGEPTYAEEFKGRVTMTRDTSTSTVYMELSSLRSEDTAVYFCASDYGSILYWYFDVWGQGTLVTVSS
VL: B1 VL with V11L, T30S, A43S, L73F, D92Y, S93N, S94A, W96P
notes: humanized from 023c
Kd [3]: 0.616 nM
koff [3]: 0.000198 s⁻¹
kon [3]: 321000 M⁻¹ s⁻¹

B3: hu023.08 (antibody, human IgG4, V domains shown)
VH: B2 VH with A9P, R72L
VL: B1 VL with V11L, T30S, A43S, L73F, D92Y, S93N, S94A, W96P
notes: humanized from 023c
Kd [3]: 0.689 nM
koff [3]: 0.000219 s⁻¹
kon [3]: 318000 M⁻¹ s⁻¹

B9: Antibody 039 (antibody, V domains shown)
VH: EFQLQQSGPELVKPGASVKISCKASGYSFTDYNLNWVRQSNGKSLEWIGLVDPIYGTIRYNQNFKDKATLTVDQSSSTAYMQLNSLTSEDSAVYYCASIMTAVRYFDHWGQGTTLTVSS
VL: DVLMTQTPLFLPVSLGDQASISCRSSLNIVHSDGNTYLEWYLQKPGQSPKLLIYKVSNRFSGVPDRFSGSGSGTDFTLKISGVEAEDLGVYYCFQGSHVPPTFGGGTKLEIK
notes: mouse hybridoma antibody
IC50 [4]: 5.2 nM
TOP blocking (%) [4]: 94.9%
binding result [5]: no binding
EC50 [6]: 1.38 nM
EC50 [7]: 0.04 nM
% competition [8]: 2.6%
% competition [9]: 19.3%

B10: Antibody 015 (antibody, V domains shown)
VH: EVQLQQSGPVLVKPGASVKLSCKASGFTFTDYYMNWVKLSHGKSLEWIGVINPFNGDTAYKQKFKGKATLTVDKSSSTAYMELNSLTSEDSAVYYCARDDGYYLYYFDSWGQGTTLTVSS
VL: DIQMTQSPSSLSASLGERVSLTCRASQDIGSRLNWLQQEPDGTIKRLIYATSSLDSGVPKRFSGSRSGSDYSLTISSLDSEDFVVYYCLQYASSPPTFGAGTKLELK
notes: mouse hybridoma antibody
IC50 [4]: 2.7 nM
TOP blocking (%) [4]: 94.3%
binding result [5]: no binding
EC50 [6]: 2.09 nM
EC50 [7]: 0.25 nM
% competition [8]: 1.6%
% competition [9]: 10%

B11: 038c (antibody, human IgG4, V domains shown)
VH: DVQVQESGPGLVKPSQSLSLTCSVTGYSITSGYYWNWIRQFPGNKLEWMGYISYDGSNEYNLSLKNRLSITRDTSKNQFFLKLNSVTTEDTATYYCAREEDGYYGGMDYWGQGTSVTVSS
VL: DIVMTQSHKFMSASVGVRVSITCRASQDVDTAVAWYQQKPGQSPKLLIYWASTRHTGVPDRFTGSGSGTDFTLTISNVQSEDLADYFCQQYSSYPYTFGGGTKLEIK
notes: human IgG4 S228P / kappa chimeric antibody; also called chimeric antibody 038; not shown: human kappa light chain constant region (pcDNA3.4-hIgGk vector)
IC50 [10]: 5.2 nM
TOP blocking (%) [10]: 98.4%
EC50 [11]: 2.3 nM

Results, then the binder that gave them:

Kd [1]: 4.79 nM
koff [1]: 0.0224 s⁻¹
kon [1]: 4.68e+06 M⁻¹ s⁻¹
%Blocking at 2 nM [2]: 19.6%
%Blocking at 4 nM [2]: 43.4%
%Blocking at 8 nM [2]: 99.1%
B4: hu029.40 (antibody, V domains shown)
VH: B1 VH with I37V, G44R
VL: B1 VL with A13T, L73F, L78V
notes: humanized from 029c

Kd [3]: 0.704 nM
koff [3]: 0.000204 s⁻¹
kon [3]: 290000 M⁻¹ s⁻¹
B5: hu023.09 (antibody, human IgG4, V domains shown)
VH: B2 VH with A9P, R72L
VL: B1 VL with V11L, A13T, T30S, A43S, L73F, L78V, D92Y, S93N, S94A, W96P
notes: humanized from 023c

Kd [3]: 0.24 nM
koff [3]: 7.72e-05 s⁻¹
kon [3]: 322000 M⁻¹ s⁻¹
B6: hu023.14 (antibody, human IgG4, V domains shown)
VH: QIQLVQSGPELKKPGASVKISCKASGYTFTESPMNWVRQAPGQGFEWMGIIYTDTGEPTYAEEFKGRFVFSLDTSVSTAYLQISSLKAEDTAVYFCVSDYGSILYWYFDVWGQGTLVTVSS
VL: B1 VL with V11L, T30S, A43S, L73F, D92Y, S93N, S94A, W96P
notes: humanized from 023c

Kd [3]: 0.657 nM
koff [3]: 0.000161 s⁻¹
kon [3]: 246000 M⁻¹ s⁻¹
B7: hu023.06 (antibody, human IgG4, V domains shown)
VH: B2 VH
VL: B1 VL with V11L, A13T, T30S, A43S, L73F, L78V, D92Y, S93N, S94A, W96P
notes: humanized from 023c

Kd [3]: 0.189 nM
koff [3]: 5.58e-05 s⁻¹
kon [3]: 296000 M⁻¹ s⁻¹
B8: hu023.12 (antibody, human IgG4, V domains shown)
VH: B6 VH with I2V, I20V
VL: B1 VL with V11L, A13T, T30S, A43S, L73F, L78V, D92Y, S93N, S94A, W96P
notes: humanized from 023c

Reference: patent US20250313625A1 (ELPISCIENCE SUZHOU BIOPHARMA, published 2025)
